According to PMC11180174 (Nature Communications, 2024):

B1: LY-CoV1404 (also known as bebtelovimab) (antibody, V domains shown)
VH: QITLKESGPTLVKPTQTLTLTCTFSGFSLSISGVGVGWLRQPPGKALEWLALIYWDDDKRYSPSLKSRLTISKDTSKNQVVLKMTNIDPVDTATYYCAHHSISTIFDHWGQGTLVTVSS
VL: QSALTQPASVSGSPGQSITISCTATSSDVGDYNYVSWYQQHPGKAPKLMIFEVSDRPSGISNRFSGSKSGNTASLTISGLQAEDEADYYCSSYTTSSAVFGGGTKLTVL
notes: control antibody
B2: LY-CoV1404 (bebtelovimab) (antibody, V domains shown)
VH: B1 VH
VL: B1 VL
B3: neutralizing antibody 7F3 (antibody, V domains shown)
VH: EVQLVESGGGLVKPGRSLRLSCTASGFTFGDYAMSWFRQAPGKGLEWVGFIRSKAYGGTTEYAASVKGRFTISRDDSKSIAYLQMNSLKTEDTAVYYCTRDRYARYDILTGLSPAGADYFYYAMDVWGQGTTVTVSS
VL: EIVLTQSPATLSLSPGERATLSCRASQSVSSYLAWYQQKPGQAPRLLIYDASNRATGIPARFSGSGSGTDFTLTISSLEPEDFAVYYCQQRSNWPQYTFGQGTKLEIK
B4: 7F3 neutralizing antibody (IgG) (antibody, V domains shown)
VH: B3 VH
VL: B3 VL

Experiments:
Experiment in all cases: BLI
Conditions in all cases: both partners purified
[1] = target: T1, SARS-CoV-2 Omicron BA.1 RBD, His-tagged (SARS-CoV-2 Omicron BA.1, strain)
T1 construct: not shown: 8xHis, C-terminal, kept

[2] = target: T2, SARS-CoV-2 Omicron BF.7 RBD, His-tagged (SARS-CoV-2 Omicron BF.7, R346T)
T2 construct: not shown: 8xHis, C-terminal, kept

[3] = target: T3, SARS-CoV-2 Delta RBD, His-tagged (SARS-CoV-2 Delta (B.1.617.2), strain)
T3 construct: not shown: 8xHis, C-terminal, kept

[4] = target: T4, SARS-CoV-2 Omicron BA.5 RBD, His-tagged (SARS-CoV-2 Omicron BA.5, strain)
T4 construct: not shown: 8xHis, C-terminal, kept

[5] = target: T5, SARS-CoV-2 Omicron BA.1 spike RBD-His (SARS-CoV-2 Omicron BA.1, strain)
T5 construct: not shown: His8, C-terminal, kept

[6] = target: T6, SARS-CoV-2 Delta spike RBD-His (SARS-CoV-2 Delta (B.1.617.2), strain)
T6 construct: not shown: His8, C-terminal, kept

[7] = target: T7, SARS-CoV-2 Omicron BA.5 spike RBD-His (SARS-CoV-2 Omicron BA.5, strain)
T7 construct: not shown: His8, C-terminal, kept

[8] = target: T8, SARS-CoV-2 Omicron BF.7 spike RBD-His (SARS-CoV-2 Omicron BF.7, strain)
T8 construct: not shown: His8, C-terminal, kept

[9] = target: T9, SARS-CoV-2 Omicron XBB.1.16 RBD, His-tagged (SARS-CoV-2 Omicron XBB.1.16, R346T | L368I | V445P | T478R | F486P | F490S)
T9 construct: not shown: 8xHis, C-terminal, kept

[10] = target: T10, SARS-CoV-2 Omicron XBB RBD, His-tagged (SARS-CoV-2 Omicron XBB, R346T | L368I | V445P | F486S | F490S)
T10 construct: not shown: 8xHis, C-terminal, kept

[11] = target: T11, SARS-CoV-2 Omicron XBB spike RBD-His (SARS-CoV-2 Omicron XBB, strain)
T11 construct: not shown: His8, C-terminal, kept

[12] = target: T12, SARS-CoV-2 Omicron XBB.1.16 spike RBD-His (SARS-CoV-2 Omicron XBB.1.16, R346T | L368I | V445P | F486P | F490S | T478R)
T12 construct: not shown: His8, C-terminal, kept

| Binder | Kd [2] | koff [2] | kon [2] | Kd [3] | koff [3] | kon [3] | Kd [6] | koff [6] | kon [6] | Kd [8] | koff [8] | kon [8] | other results |
| --- | --- | --- | --- | --- | --- | --- | --- | --- | --- | --- | --- | --- | --- |
| B1 | < 0.001 nM | < 1e-07 s⁻¹ | 46800 M⁻¹ s⁻¹ | < 0.001 nM | < 1e-07 s⁻¹ | 244000 M⁻¹ s⁻¹ | – | – | – | – | – | – | Kd [1]: < 0.001 nM; koff [1]: < 1e-07 s⁻¹; kon [1]: 32200 M⁻¹ s⁻¹; Kd [4]: < 0.001 nM; koff [4]: < 1e-07 s⁻¹; kon [4]: 40500 M⁻¹ s⁻¹ |
| B2 | – | – | – | – | – | – | < 0.001 nM | < 1e-07 s⁻¹ | 244000 M⁻¹ s⁻¹ | < 0.001 nM | < 1e-07 s⁻¹ | 46800 M⁻¹ s⁻¹ | Kd [5]: < 0.001 nM; koff [5]: < 1e-07 s⁻¹; kon [5]: 32200 M⁻¹ s⁻¹; Kd [7]: < 0.001 nM; koff [7]: < 1e-07 s⁻¹; kon [7]: 40400 M⁻¹ s⁻¹ |
| B3 | 1280 nM | 0.0412 s⁻¹ | 32100 M⁻¹ s⁻¹ | 20.8 nM | 0.000914 s⁻¹ | 44000 M⁻¹ s⁻¹ | – | – | – | – | – | – | Kd [9]: 28.6 nM; koff [9]: 0.0048 s⁻¹; kon [9]: 168000 M⁻¹ s⁻¹; Kd [10]: 19.9 nM; koff [10]: 0.00113 s⁻¹; kon [10]: 56600 M⁻¹ s⁻¹ |
| B4 | – | – | – | – | – | – | 20.8 nM | 0.000914 s⁻¹ | 44000 M⁻¹ s⁻¹ | 1280 nM | 0.0412 s⁻¹ | 32100 M⁻¹ s⁻¹ | Kd [11]: 19.9 nM; koff [11]: 0.00112 s⁻¹; kon [11]: 56600 M⁻¹ s⁻¹; Kd [12]: 28.6 nM; koff [12]: 0.0048 s⁻¹; kon [12]: 168000 M⁻¹ s⁻¹ |
